Experimental data reported in the supplement of paper PMC9170038.

Experiments:
MS2 coat protein [1] = test: apparent KD of MS2 coat protein, switch ON state; designed switch direction (-1 OFF switch, 1 ON switch): 1; higher = weaker reporter binding; settings: FMN input: 0 or 200 uM; Eterna round: R93 (includes R88 designs)
In short: (§1)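 Designed RNA switches were transcribed on-chip from Illumina sequencing clusters and titrated with SNAP-549-labelled MS2 coat protein in twofold steps from 0.7 or 1.5 nM up to 3 µM. Each step lasted 0.8–1.5 h at first and 10–20 min by the end, in 100 mM Tris-HCl pH 7.5, 80 mM KCl and 4 mM MgCl2, without or with constant ligand. Apparent KD is the median, for each design, of fits to normalised cluster binding curves.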

MS2 coat protein [2] = test: apparent KD of MS2 coat protein, switch OFF state (with FMN for OFF switches, without FMN for ON switches); designed switch direction (-1 OFF switch, 1 ON switch): 1; higher = weaker reporter binding; settings: FMN input: 0 or 200 uM; Eterna round: R93 (includes R88 designs)
In short: as §1

Row | Sequence | apparent KD of MS2 coat protein (MS2 coat protein [1]) | apparent KD of MS2 coat protein (MS2 coat protein [2])
1 | AGAAAACAUGAGGAUCACCCAUGUGAUAAUAUGGGAGGAUAUACGGAGACGAAAGUCGACGUAGAAGGCCUAAAGA [Garnet 49] | 42.9 nM | 82.8 nM
2 | AGAAAUAAAAGAGAGGAUAUCUUAAAGAAAACAUGAGGAUCACCCAUGUAAAAGAAAAUAAAAUGGGAGAAGGCUCAUAAUAAAG [JL Skelter Mod 4 In the Red] | 151 nM | 109 nM
3 | AGAAAUAAAGCAGAGGAUAUCCAAAAGAAAACAUGAGGAUCACCCAUGUAAAAGAAAAUAAAAUGGGAGAAGGCUGCAAAUAAAG | 18.5 nM | 23.9 nM
4 | AGGAAACAUGAGGAUCACCCAUGUAAAAAAAUGGGAGGAUAUCCGCAUUAAUUAAAUGAAGGAGAAGGCCUAAAAA [71%, Same state of confusion2, 5] | 21.6 nM | 63.1 nM
5 | AGGAAACAUGAGGAUCACCCAUGUAAAAAAGUGGGAGGAUAUGCGAAAAGAAAAAGAAAAGCAGAAGGCCUAAGAA [62%, Something completely different, 6] | 21.9 nM | 42.7 nM
6 | AGGAAACAUGAGGAUCACCCAUGUAAAAAUAUGGGAGGAUAUACGAAGACGAAAGAAAAAGUAGAAGGCCUAAAAG [Garnet 14] | 63.6 nM | 155 nM
7 | AGGAAACAUGAGGAUCACCCAUGUAAAAAUAUGGGAGGAUAUACGAAGACGAAAGUAAGAGUAGAAGGCCUAAAAG [Garnet 9] | 23.9 nM | 90.6 nM
8 | AGGAAACAUGAGGAUCACCCAUGUAAAAAUAUGGGAGGAUAUACGAAGACGAAAGUGAGAGUAGAAGGCCUAAAAG [Garnet 8] | 30.9 nM | 87.7 nM
9 | AGGAAACAUGAGGAUCACCCAUGUAAAAAUAUGGGAGGAUAUGCGAAAAGAAACAAAGAAGCAGAAGGCCUAAAAA [75%, Ex sub1, 21] | 21.9 nM | 66.9 nM
10 | AGGAAACAUGAGGAUCACCCAUGUAAAAGGUGGUUAGGAUAUGCGAUAAUAAAAAUAAUAGCAGAAGGGACAAGAA [Same State of Confusion3 mod Fisker] | 215 nM | 416 nM
11 | AGGAAACAUGAGGAUCACCCAUGUAAAGAUGGAGGAGGAUAUCGAAAGAAAAGAAAGAAACGAGAAGGCCUAAAAG [59%, Flamingo, 2] | 20.9 nM | 99.2 nM
12 | AGGAAACAUGAGGAUCACCCAUGUAAGAUAAACACAGGAUAUGCGAAAAGAAACAAAGAAGCAGAAGGGUGAAGAA [75%, Ex5 sub 1, 1] | 20.6 nM | 35.6 nM
13 | AGGAAACAUGAGGAUCACCCAUGUAUAAAAAUGGAAGGAUAUACUAAGACGAAAGUCAUAGUAGAAGGUCUAAAAA [76%, Meechl, 10] | 16.6 nM | 20.7 nM
14 | AGGAGACAUGAGGAUCACCCAUGUAGAAGGAUGGGAGGAUAUACAAAGACGAGAGUCAGAGUAGAAGGCCUAGGGA [salish99-ss1-183(!)] | 24.2 nM | 54.1 nM
15 | AGGAGACAUGAGGAUCACCCAUGUGAGAAGAGGCGAGGAUAUCGAAAGAAAGAAGAGAAACGAGAAGGCGCGAGUA [salish99-SS1-018] | 24.9 nM | 40.8 nM
16 | AGGAGACAUGAGGAUCACCCAUGUGAGAAGAGGCGAGGAUAUCGAAAGAAAGAAGAGAAACGAGAAGGCGCGAGUC [salish99-SS1-030] | 25.6 nM | 37 nM
17 | AGGAGACAUGAGGAUCACCCAUGUGCGAGGUGAAGAGGAUAUAGAAGAAGAAGAAAGAAACUAGAAGGCUUAAAAA [JR_SameState1_Sub1] | 122 nM | 125 nM
18 | AUAAAACAUGAGGAUCACCCAUGUAAAAAUAUGGGAGGAUAUGCGAAAUAAAAUAAAUAAGCAGAAGGCCUAAAAA [SS! MT 19] | 11.9 nM | 174 nM
